B1: lidless Chinese hamster BiP^V461F (28–549) (domain or fragment)
chain: not shown
notes: BiP, Chinese hamster, residues 28-549 (C-terminal alpha-helical lid truncated), V461F; also called BiP^V461F (apo); UK2121; source: E. coli M15, purified (nickel chelating, anion exchange, SEC)
B2: biotinylated AviTag-SAP^119–179 (domain or fragment, mouse, UniProt Q9CXI5 119-179, looked up)
chain: DKQIDLSTVDLKKLRVKELKKILDDWGEMCKGCAEKSDYIRKINELMPKYAPKAASARTDL
modifications: also: biotin on AviTag lysine (tag not in chain)
notes: C-terminal SAP (SAF-A/B, Acinus, and PIAS) domain of MANF, mouse, residues 119-179; also called SAP domain of MANF; UK2005; source: E. coli Origami B (DE3), purified (GSTrap, TEV cleavage), biotinylated in vitro with BirA; not shown: GST, N-terminal, cleaved; AviTag, N-terminal, kept
B3: biotinylated AviTag-MANF^22–179 (natural protein, mouse, UniProt Q9CXI5 22-179, looked up)
chain: LRPGDCEVCISYLGRFYQDLKDRDVTFSPATIEEELIKFCREARGKENRLCYYIGATDDAATKIINEVSKPLAHHIPVEKICEKLKKKDSQICELKYDKQIDLSTVDLKKLRVKELKKILDDWGEMCKGCAEKSDYIRKINELMPKYAPKAASARTDL
modifications: biotin (on the AviTag, by E. coli BirA)
notes: mesencephalic astrocyte-derived neurotrophic factor (MANF), mouse, residues 22-179; Ligand on streptavidin BLI sensors; also called mMANF; UK1987; source: E. coli Origami B (DE3), purified (GSTrap, TEV cleavage), biotinylated in vitro with BirA; not shown: GST, N-terminal, cleaved; AviTag, N-terminal, kept

Experiments:
[1] = biological target: the molecule itself; assay: crystal structure; lidless BiP^V461F (apo) crystals from a co-crystallisation mix with MANF or SAP; only BiP^V461F present in the crystal; contacts between protomers of the lattice
BiP NBD (28–413) = biological target: T1, BiP NBD (28–413) (Chinese hamster, UniProt G3I8R9 28-413); assay: BLI; sequential dipping: streptavidin biosensors loaded with biotinylated MANF, SAP or SAPLIP, dipped in BiP SBD, buffer, BiP NBD with 2 mM ATP, 2 mM ATP, BiP NBD with 2 mM ADP, 2 mM ADP; HKMT buffer; details: both partners purified
T1 construct: UK2039 is named for the crystals and the MABA-ADP assay; also called UK2039; source: E. coli M15, purified (nickel chelating, tag cleavage, anion exchange, SEC); not shown: His6-Smt3, N-terminal, cleaved
T1 sequence (G3I8R9 28-413): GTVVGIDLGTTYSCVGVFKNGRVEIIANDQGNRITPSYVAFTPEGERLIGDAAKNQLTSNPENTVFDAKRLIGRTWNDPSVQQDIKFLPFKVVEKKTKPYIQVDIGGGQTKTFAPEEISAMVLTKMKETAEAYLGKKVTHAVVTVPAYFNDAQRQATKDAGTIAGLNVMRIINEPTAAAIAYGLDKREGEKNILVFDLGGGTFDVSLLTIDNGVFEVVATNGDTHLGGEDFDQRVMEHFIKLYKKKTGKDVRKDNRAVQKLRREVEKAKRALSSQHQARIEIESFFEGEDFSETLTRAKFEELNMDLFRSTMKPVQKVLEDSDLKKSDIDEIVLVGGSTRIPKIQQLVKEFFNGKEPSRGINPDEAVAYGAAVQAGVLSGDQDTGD

Binder	binding result [1]	binding result (BiP NBD (28–413))
B1	binds	–
B2	–	binds
B3	–	binds

From publication PMC6358605, “MANF antagonizes nucleotide exchange by the endoplasmic reticulum chaperone BiP” (Nature Communications, 2019)
